This test deals with T1, recombinant TNFα, biotinylated (human, UniProt P01375 77-233, biotinylated using sulfo-NHS-LC-Biotin (sites not given)).
T1 construct: human is stated in the abstract and claims; also called biotinylated TNFα; human TNFα
The test is described as follows: ELISA of lysates on biotinylated TNFα on streptavidin plate. The method, then: Maxisorp plates (Nunc) were coated with 0.5 μg of streptavidin, washed with TBST, and bound to 100 ng of biotinylated TNFα or 200 ng of biotinylated human serum albumin before being blocked with Starting Block (Thermo Scientific). Clarified lysates diluted 1:1 in Starting Block were added to the plates and allowed to bind for 1 hour before being washed with TBST. Detection of bound Tencon was accomplished using an anti-HIS-HRP antibody (Qiagen).

T1 sequence (P01375 77-233 limits assumed): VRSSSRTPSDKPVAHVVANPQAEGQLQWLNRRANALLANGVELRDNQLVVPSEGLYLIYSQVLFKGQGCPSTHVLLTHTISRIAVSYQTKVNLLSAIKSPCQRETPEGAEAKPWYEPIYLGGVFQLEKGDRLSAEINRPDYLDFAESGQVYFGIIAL

B1: Clone No. 86 (designed binder)
chain: LPAPKNLVVSEVTEDSLRLSWTAPDAAFDSFLIQYQESEKVGEAINLTVPGSERSYDLTGLKPGTEYTVSIYGVWAHLLRDPLSAEFTT
notes: F:G WAHLLRD
With B1, the binding result was “binds”.

For the origin of these results see patent US20100144601A1 (Janssen / Centocor, published 2010).
